Assay results from patent publication US20160040149A1, “Compositions Having Dicamba Decarboxylase Activity and Methods of Use” (priority 2013, published 2016).
Substitutions are numbered along the chain they refer to.

Experiments:
[1] = Dicamba decarboxylase activity / product analysis with purified His-tag protein (14C assay and product detection of Example 1); format: biochemical; settings: for other products (than 2,5-DCA): purified protein, dicamba substrate; for dicamba decarboxylase activity: statement of the description
Method: To obtain purified protein for activity assays, IPTG-induced cells were harvested by centrifugation at 7,000 rpm for 10 mins Cell pellet from 50 mL of cell culture was frozen and thawed twice and then lysed in 8004 lysis buffer consisting of 50 mM potassium phosphate buffer (pH7.0), 50 μM ZnSO4, 5% EG, 50 mM KCl, 1 mM DTT, 0.2 mg/ml lysozyme, 1/200 protease inhibitor cocktail (EMD set3, EDTA free), and 1/2,000 endonuclease. Lysate was then centrifuged at 13,000 rpm for 45 min at 4° C. Supernatant was loaded onto 200 μL Ni-NTA columns pre-equilibrated with 10 mM His Buffer containing 25 mM potassium phosphate buffer pH7, 50 μM ZnSO4, 5% EG, 200 mM KCl, and 10 mM histidine. The columns were let sit at 4° C. until the entire supernatant passed through. Each column was then washed with 200 ul 10 mM His Buffer twice and then 4 times with 800 ul loading buffer consisting of 25 mM potassium phosphate buffer pH7, 50 μM ZnSO4, 5% EG, 200 mM KCl. Protein was eluted with 1504 of Elution Buffer consisting of 25 mM potassium phosphate buffer pH7, 50 μM ZnSO4, 5% EG, 100 mM KCl, 100 mM histidine, 10% glycerol. The protein concentration was measured by Bradford assay. Purified protein was used for dicamba decarboxylase activity measurement as described in Example 1. Enzyme kinetic characterization of selected dicamba decarboxylases was determined through GC/MS measurement of 2,5-DCP or PEPC coupled assay as described in Example 1.

[2] = GC/MS detection of decarboxylation product 2,5-DCA (toluene trapping or head space); format: biochemical; settings: purified protein, dicamba substrate
Method: Alternatively, dicamba decarboxylase activity can be monitored by measuring decarboxylation products other than CO2 using product detection methods. The decarboxylation product of dicamba, 2,5-dichloro anisole or 2,5-DCA (FIG. 1C), is a volatile compound with a flash point of 21° C. To capture this volatile compound for detection, 140 ul of toluene solution is added on top of 1 ml reaction mixture to form a trapping layer in a 1.5 ml eppendorf tube. […] The reaction is kept still at room temperature overnight before being vortex mixed and centrifuged at 14,000 rpm for 15 minutes. The top toluene phase is carefully removed using a micropipette and transferred into a 12×32 mm polypropylene vial (Vial 11 mm) from MicroLiter Analytical Supplies, Inc. (catalog number 11-5300-100). The vial is sealed with Crimp seal (11 mm with FEP/Nat Rubber) from MicroLiter Analytical Supplies, Inc. (catalog number 11-0020A) using a E-Z Crimper™ 11 mm from Wheaton Inc. lul of the toluene mixture is taken from the sealed vials and injected in splitless mode into a GC/MS system for sample analysis (Agilent GC/MS system with a 6890A GC, a 5973N MSD and a CTC CombiPAL auto-sampler or with a 7890A GC, a 5975C MSD and an Agilent GC Sampler 80 auto-sampler). The GC parameters are: Agilent DB-5MS column (30 m length, 0.25 mm diameter, 0.25 um film) or equivalent; The GC inlet temperature, 250° C.; Carry gas, helium in constant flow mode (1.2 mL/min); The GC oven temperature program, initial temperature at 70° C. for 1 min, ramping to 200° C. at 15° C./min, and then ramping to 250° C. at 30° C./min. MS data acquisition is done in SIM (selected ion monitoring) mode, monitoring the positive ion at M/Z 176 for the molecular ion of […]. The solvent delay for MS acquisition is set at 4 min. Another method for detection of 2,5-DCA is a head-space GC/MS method. Briefly, reaction mixtures in 500 ul reaction volume are prepared in 1.5 ml 12×32 mm glass vials (Microliter Analytical Supplies, Cat#11-1200) for head space analysis. Glass vials are sealed with magnetic cap from MicroLiter Analytical Supplies, Inc. (catalog number 11-0030AT) using a E-Z Crimper™ 11 mm from Wheaton Industries Inc. The reaction is carried out at room temperature for various amount of time and stopped by heating at 95° C. for 5 min. The reaction vial is transferred to a agitator for incubation at 80° C. for 5 min at 500 rpm. With a syringe preheated at 80° C., 1000 uL of head space is injected with sample fill speed at 100 uL/sec. GC/MS parameters for headspace analysis are the same as for liquid sample analysis.

[3] = Saturation mutagenesis of SEQ ID NO:109: dicamba decarboxylation activity of point mutants (CO2 released), fold of backbone (Tables 7, 8, Megatable 1); settings: decarboxylation activity (CO2 released) of point mutant vs unmutated backbone protein; backbone SEQ ID NO: 109
[4] = LC-MS/MS detection of 4-chloro-3-methoxy phenol; format: biochemical; settings: purified protein, dicamba substrate
Method: The decarboxylated and chloro hydrolyzed product, 4-chloro-3-methoxy phenol (FIG. 1D), is measured using a LC-MS/MS analytical procedure. […] 10 ul is removed from the reaction mixture and mixed with 90 ul pre-chilled methanol followed by centrifugation at 14,000 rpm for 15 min at 4° C. 10 ul of the supernatant is then transferred into 170 ul ddH2O to achieve 5% methanol solution for injection. 50 ul of the prepared sample is injected into a 4000 Q Trap LC-MS/MS system for sample analysis. LC-MS/MS parameters are: Mobile Phase A, 2 mM ammonium acetate in water; Mobile Phase B, 2 mM ammonium acetate in methanol; Column, Aquasil, 100×2.1 mm, 3 μm, C18 column; Flow Rate, 0.6 ml/min. The MS/MS fragment 157/142 which is common to 4-chloro-3-methoxy phenol, 2-chloro-5-methoxy phenol, and 3-chloro-5-methoxy phenol is monitored at a retention time of 2.88 min.

[5] = GC/MS detection of 2,5-DCP; format: biochemical; settings: purified protein, dicamba substrate
Method: The decarboxylated and demethylated product of dicamba, 2,5-dichloro phenol or 2,5-DCP (FIG. 1E) is measured using a GC/MS analytical procedure with either liquid injection after liquid/liquid extraction using toluene as the extraction solvent or gas injection using head space method. The head space sample analysis is carried out on an Agilent GC/MS system with a 6890A GC, a 5973N MSD and a CTC CombiPAL auto-sampler or with a 7890A GC, a 5975C MSD and an Agilent GC Sampler 80 auto-sampler with Phenomenex ZB-MultiResidue-1 column (30 m length, 0.25 mm diameter, 0.25 um film) or equivalent. GC/MS parameters are: GC inlet temperature, 200° C.; Carry gas, helium in constant flow mode (1.2 mL/min); Oven temperature program, 70° C. for 1 min and then ramp to 275° C. at 40° C./min. Protein reactions are carried out in a 1.5 ml 12×32 mm glass vials for head space analysis as described previously. The reaction vial is transferred to a agitator for incubation at 90° C. for 4 min at 500 rpm. With a syringe preheated at 110° C., 1000 uL of head space is injected with sample fill speed at 100 uL/sec. A 2-mm diameter liner is used in sample inlet. The MS data acquisition is done in SIM (selected ion monitoring) mode. The positive ion at M/Z 162 for the molecular ion of 2,-5-DCP is monitored at retention time of 4.06 min. Solvent delay for MS acquisition is set at 3 min. […]

B1: 120 (protein)
chain: MAIIDCHGHYTTTPKGVETYRNAQKAAVAKDPSFKYEKGQVVVSDDEIRESIENNQLKMQRERGTDLTIFSPRSTAGGHHIGNEYTSQFWTEHQNDLIRRVCDLFPKNFAPVAQLPQSPGVDPAKSVPEIVRTVEQMGFIGINLNPDPSGGYWKDTSLADRAFYPIYEKMVEYDIPAMIHPRNACNDCFHTTGSHALGADTTGFQQLIMSDVFKDFPSLKIIIPHGGGAVPYHWGRFRGLMQDQGYAPLEESALKNIYFDTCVYHQRGIDLLLDIVPTQNILFASEMIGAVRGIDAETGHNFDDTKRYIDNNTALNAEEKAMIFEGNARRVFSRLKTD
modifications: Dicamba decarboxylase variant clone: DC.12.002
other products (than 2,5-DCA) [1]: not detected | dicamba decarboxylase activity [1]: shown herein to have dicamba decarboxylase activity | minor decarboxylation product 2,5-DCA [2]: detected | Fold Activity [3]: 1.3 fold

B2: 122 (protein)
chain: B1 chain with T19D, Y36G, E286D, A296P
modifications: Dicamba decarboxylase variant clone: DC.12.103
other products (than 2,5-DCA) [1]: not detected | dicamba decarboxylase activity [1]: shown herein to have dicamba decarboxylase activity | minor decarboxylation product 2,5-DCA [2]: detected | Fold Activity [3]: 0.9 fold

B3: 117 (protein)
chain: MAKKPRIDMHSHFFPRISEQEAAKFDANHAPWLQVSAKGDTGSIMMGKNNFRPVYQALWDPAFRIEEMDAQGVDVQVTCATPVMFGYTWEANKAAQWAERMNDFALEFAAHNPQRIKVLAQVPLQDLDLACKEASRAVAAGHLGIQIGNHLGDKDLDDATLEAFLTHCANEDIPILVHPWDMMGGQRMKKWMLPVLVAAPAEVQLAILSLILSGAFERIPKSLKICFAGGGGSFAFLLGIVDLAWRHRDIVREDCPRPPSEYVDRFFVDSLVFNPGALELLVSVMGEDRVMLGSDYPFPTGEQKIGGLVLSSNLGESAKDKIISGNASKFFNINV
modifications: Dicamba decarboxylase variant clone: DC.5.008
other products (than 2,5-DCA) [1]: not detected | dicamba decarboxylase activity [1]: shown herein to have dicamba decarboxylase activity | minor decarboxylation product 2,5-DCA [2]: detected | Fold Activity [3]: 1.8 fold

B4: 1 (protein, listed as Rhizobium sp.)
chain: MAQGKVALEEHFAIPETLQDSAGFVPGDYWKELQHRLLDIQDTRLKLMDAHGIETMILSLNAPAVQAIPDRRKAIEIARRANDVLAEECAKRPDRFLAFAALPLQDPDAATEELQRCVNDLGFVGALVNGFSQEGDGQTPLYYDLPQYRPFWGEVEKLDVPFYLHPRNPLPQDSRIYDGHPWLLGPTWAFAQETAVHALRLMASGLFDEHPRLNIILGHMGEGLPYMMWRIDHRNAWVKLPPRYPAKRRFMDYFNENFHITTSGNFRTQTLIDAILEIGADRILFSTDWPFENIDHASDWFNATSIAEADRVKIGRTNARRLFKLDGA
dicamba decarboxylase activity [1]: native dicamba decarboxylase activity | relative amount of 2,5-DCA compared to CO2 formation (100%) [2]: < 1% | relative amount of 4-chloro-3-methoxy phenol compared to CO2 formation (100%) [4]: < 10% | relative amount of 2,5-DCP compared to CO2 formation (100%) [5]: > 80% | Fold Activity [3]: 1.2 fold

B5: 118 (protein)
chain: MAKKPRIDMHSHFFPRISEQEAAKFDANHAPWLQVSAKGDTGSIMMGKNNFQPVYQALWDPAFRIEEMDAQGVDVQVTCATPVMFGYTWEANKAAQWAERMNDFALEFAAHNPQRIKVLAQVPLQDLDLACKEASRAVAAGHLGIQIGNHLGDKDLDDATLEAFLTHCANEDIPILVHGTDMMGGQRMKKWGLPWLVALAAEVQLAILSLILSGAFERIPKSLKICFSHGGGSFAFLLGLVDEAWRHVDIVREDCPRPPSEYVDRFFVDSVGNPGALELLVSVMGEDRVMLGSDYPHTTGEQKIGGLVLSSNLGESAKDKIISGNASKFFNINV
modifications: Dicamba decarboxylase variant clone: DC.5.033
other products (than 2,5-DCA) [1]: not detected | dicamba decarboxylase activity [1]: shown herein to have dicamba decarboxylase activity | minor decarboxylation product 2,5-DCA [2]: detected | Fold Activity [3]: 1.4 fold

B6: 119 (protein)
chain: B5 chain with T180W, P194Y, L199H, A200H, L237T, L240W, H297L
modifications: Dicamba decarboxylase variant clone:DC.5.034
other products (than 2,5-DCA) [1]: not detected | dicamba decarboxylase activity [1]: shown herein to have dicamba decarboxylase activity | minor decarboxylation product 2,5-DCA [2]: detected | Fold Activity [3]: 1.6 fold

B7: 121 (protein)
chain: MAIIDCHGHYTTTPKGVEDYRNAQKAAVAKDPSFKGEKGQVVVSDDEIRESIENNQLKMQRERGTDLTIFSPRWDAGGHHIGNEYTSQFWTEHQNDLIRRVCDLFPKNFAPVAQLPQSPGVDPAKSVPEIVRTVEQMGFIGINLNPDPSGGYWKDTSLADRAFYPIYEKMVEYDIPAMIHPRLACNACFHTGLSVGLGADTTGFQQLIMSDVFKDFPSLKIIIPHGGGAVPYHWGRFRGLMQDQGYAPLEESALKNIYFDTCVYHQRGIDLLLDIVPTQNILFASEMIGAVRGIDPETGHNFDDTKRYIDNNTALNAEEKAMIFEGNARRVFSRLKTD
modifications: Dicamba decarboxylase variant clone: DC.12.014
other products (than 2,5-DCA) [1]: not detected | dicamba decarboxylase activity [1]: shown herein to have dicamba decarboxylase activity | minor decarboxylation product 2,5-DCA [2]: detected | Fold Activity [3]: 1 fold
